Experimental data from US20110300131A1.

T1: CD70 expressed by cancer cell lines and tumor tissues (786-O, SK-OV-3/SKOV-3, Caki-1, PANC-1 and others) (UniProt P32970)
T1 sequence (looked up): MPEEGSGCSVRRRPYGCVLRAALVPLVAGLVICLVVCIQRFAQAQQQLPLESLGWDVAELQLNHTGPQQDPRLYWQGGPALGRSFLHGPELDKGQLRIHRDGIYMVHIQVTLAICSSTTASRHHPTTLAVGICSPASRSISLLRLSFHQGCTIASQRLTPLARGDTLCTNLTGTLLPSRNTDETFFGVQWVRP

B1: h1F6vc-MMAF(4) (antibody, INN chains, looked up, V domains shown)
VH: QVQLVQSGAEVKKPGASVKVSCKASGYTFTNYGMNWVRQAPGQGLKWMGWINTYTGEPTYADAFKGRVTMTRDTSISTAYMELSRLRSDDTAVYYCARDYGDYGMDYWGQGTTVTVSS
VL: DIVMTQSPDSLAVSLGERATINCRASKSVSTSGYSFMHWYQQKPGQPPKLLIYLASNLESGVPDRFSGSGSGTDFTLTISSLQAEDVAVYYCQHSREVPWTFGQGTKVEIK
modifications: vc-MMAF, 4 drugs per antibody
B2: h1F6vc-MMAE(4) (antibody, INN chains, looked up, V domains shown)
VH: B1 VH
VL: B1 VL
modifications: vc-MMAE, 4 drugs per antibody
B3: h1F6mc-MMAF(8) (antibody, INN chains, looked up, V domains shown)
VH: B1 VH
VL: B1 VL
modifications: mc-MMAF, 8 drugs per antibody

target: T1, CD70 expressed by cancer cell lines and tumor tissues (786-O, SK-OV-3/SKOV-3, Caki-1, PANC-1 and others); assay: cell-based or functional assay

With h1F6mc-MMAF(4) (antibody) as the molecule, how does the IC50, viability of SKOV-3 cells after 96 hours (Promega CelltiterGlo) read?
Its IC50, viability of SKOV-3 cells after 96 hours (Promega CelltiterGlo) is 0.029 µg/mL.

How did the IC50, viability of SKOV-3 cells after 96 hours (Promega CelltiterGlo) turn out when B1 was run?
Its IC50, viability of SKOV-3 cells after 96 hours (Promega CelltiterGlo) is 0.005 µg/mL.

Which IC50, viability of SKOV-3 cells after 96 hours (Promega CelltiterGlo) does the source give for B2 here?
The IC50, viability of SKOV-3 cells after 96 hours (Promega CelltiterGlo) was 0.06 µg/mL.

B3 was tested. Which IC50, viability of SKOV-3 cells after 96 hours (Promega CelltiterGlo) did it give?
Its IC50, viability of SKOV-3 cells after 96 hours (Promega CelltiterGlo) is 0.012 µg/mL.
